Source: publication PMC12908882 (Molecular cancer therapeutics, 2026)

Experiments:
[1] = target: Human L1CAM fibronectin-like type III (FNIII) repeats, residues 606-1116, C-terminal 6x His tag (Homo sapiens, UniProt P32004); test: BLI
[2] = target: Extracellular domain of human L1CAM fused to a poly-histidine tag (L1CAM-His) (Homo sapiens, UniProt P32004); test: BLI
[3] = target: Human L1CAM expressed on transfected HEK293T cells (HEK293T-L1CAM cells) (Homo sapiens, UniProt P32004); test: flow cytometry on cells
[4] = target: Human L1CAM Ig-like domains, residues 21-605, C-terminal 6x His tag (Homo sapiens, UniProt P32004); test: BLI
[5] = target: His-tagged, monomeric mouse L1CAM protein (Mus musculus, UniProt P11627); test: BLI

Measured: binding result

Human L1CAM expressed on transfected HEK293T cells (HEK293T-L1CAM cells), sequence (P32004 20-1257): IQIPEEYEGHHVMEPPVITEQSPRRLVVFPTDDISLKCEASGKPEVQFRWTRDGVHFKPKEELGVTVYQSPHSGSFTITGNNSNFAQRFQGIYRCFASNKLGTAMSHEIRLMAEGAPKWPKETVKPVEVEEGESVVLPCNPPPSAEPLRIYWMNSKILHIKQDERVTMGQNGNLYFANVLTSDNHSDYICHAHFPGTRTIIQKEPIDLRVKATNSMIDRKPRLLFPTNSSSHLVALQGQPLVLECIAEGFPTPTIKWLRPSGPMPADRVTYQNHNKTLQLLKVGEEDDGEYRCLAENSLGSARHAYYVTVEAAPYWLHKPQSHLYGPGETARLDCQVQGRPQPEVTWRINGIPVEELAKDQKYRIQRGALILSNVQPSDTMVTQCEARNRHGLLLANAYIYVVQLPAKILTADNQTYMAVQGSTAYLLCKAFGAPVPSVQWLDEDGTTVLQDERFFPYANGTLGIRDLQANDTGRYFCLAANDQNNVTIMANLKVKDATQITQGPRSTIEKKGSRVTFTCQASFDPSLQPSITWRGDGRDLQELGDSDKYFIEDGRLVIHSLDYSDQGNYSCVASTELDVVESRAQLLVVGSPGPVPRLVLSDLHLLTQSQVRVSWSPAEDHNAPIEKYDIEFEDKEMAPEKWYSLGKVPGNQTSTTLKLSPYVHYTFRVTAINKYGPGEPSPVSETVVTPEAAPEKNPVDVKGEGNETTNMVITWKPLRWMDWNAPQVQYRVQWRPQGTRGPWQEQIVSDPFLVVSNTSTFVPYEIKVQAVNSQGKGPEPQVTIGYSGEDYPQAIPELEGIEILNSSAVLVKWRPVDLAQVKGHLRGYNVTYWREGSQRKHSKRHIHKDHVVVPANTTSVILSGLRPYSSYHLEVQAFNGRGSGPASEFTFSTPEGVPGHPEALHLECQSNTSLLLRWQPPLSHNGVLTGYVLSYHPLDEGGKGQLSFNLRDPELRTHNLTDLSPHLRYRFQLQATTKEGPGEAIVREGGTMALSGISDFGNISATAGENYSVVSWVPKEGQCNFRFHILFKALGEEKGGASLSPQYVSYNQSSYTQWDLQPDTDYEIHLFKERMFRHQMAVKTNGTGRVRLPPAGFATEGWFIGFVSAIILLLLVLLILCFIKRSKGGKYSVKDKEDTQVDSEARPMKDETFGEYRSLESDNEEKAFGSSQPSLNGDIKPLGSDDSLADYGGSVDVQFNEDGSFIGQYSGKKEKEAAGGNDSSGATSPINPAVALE
Human L1CAM Ig-like domains, residues 21-605, C-terminal 6x His tag, sequence (P32004 21-605): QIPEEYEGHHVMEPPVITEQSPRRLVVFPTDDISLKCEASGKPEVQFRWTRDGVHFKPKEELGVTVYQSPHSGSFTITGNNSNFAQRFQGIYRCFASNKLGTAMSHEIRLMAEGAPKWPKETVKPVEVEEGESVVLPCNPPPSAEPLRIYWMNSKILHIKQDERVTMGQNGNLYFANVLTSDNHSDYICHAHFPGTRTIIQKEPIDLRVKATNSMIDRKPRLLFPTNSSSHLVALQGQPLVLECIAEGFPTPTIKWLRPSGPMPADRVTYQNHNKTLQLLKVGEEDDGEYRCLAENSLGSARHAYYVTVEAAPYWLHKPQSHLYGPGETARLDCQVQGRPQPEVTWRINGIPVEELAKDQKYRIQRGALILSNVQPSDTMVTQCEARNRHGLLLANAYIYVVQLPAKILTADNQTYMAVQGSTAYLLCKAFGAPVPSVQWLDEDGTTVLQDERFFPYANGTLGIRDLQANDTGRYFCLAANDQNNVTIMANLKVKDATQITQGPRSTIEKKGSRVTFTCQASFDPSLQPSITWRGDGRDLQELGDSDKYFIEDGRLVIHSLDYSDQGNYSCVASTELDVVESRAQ
Extracellular domain of human L1CAM fused to a poly-histidine tag (L1CAM-His), sequence (P32004 20-1120): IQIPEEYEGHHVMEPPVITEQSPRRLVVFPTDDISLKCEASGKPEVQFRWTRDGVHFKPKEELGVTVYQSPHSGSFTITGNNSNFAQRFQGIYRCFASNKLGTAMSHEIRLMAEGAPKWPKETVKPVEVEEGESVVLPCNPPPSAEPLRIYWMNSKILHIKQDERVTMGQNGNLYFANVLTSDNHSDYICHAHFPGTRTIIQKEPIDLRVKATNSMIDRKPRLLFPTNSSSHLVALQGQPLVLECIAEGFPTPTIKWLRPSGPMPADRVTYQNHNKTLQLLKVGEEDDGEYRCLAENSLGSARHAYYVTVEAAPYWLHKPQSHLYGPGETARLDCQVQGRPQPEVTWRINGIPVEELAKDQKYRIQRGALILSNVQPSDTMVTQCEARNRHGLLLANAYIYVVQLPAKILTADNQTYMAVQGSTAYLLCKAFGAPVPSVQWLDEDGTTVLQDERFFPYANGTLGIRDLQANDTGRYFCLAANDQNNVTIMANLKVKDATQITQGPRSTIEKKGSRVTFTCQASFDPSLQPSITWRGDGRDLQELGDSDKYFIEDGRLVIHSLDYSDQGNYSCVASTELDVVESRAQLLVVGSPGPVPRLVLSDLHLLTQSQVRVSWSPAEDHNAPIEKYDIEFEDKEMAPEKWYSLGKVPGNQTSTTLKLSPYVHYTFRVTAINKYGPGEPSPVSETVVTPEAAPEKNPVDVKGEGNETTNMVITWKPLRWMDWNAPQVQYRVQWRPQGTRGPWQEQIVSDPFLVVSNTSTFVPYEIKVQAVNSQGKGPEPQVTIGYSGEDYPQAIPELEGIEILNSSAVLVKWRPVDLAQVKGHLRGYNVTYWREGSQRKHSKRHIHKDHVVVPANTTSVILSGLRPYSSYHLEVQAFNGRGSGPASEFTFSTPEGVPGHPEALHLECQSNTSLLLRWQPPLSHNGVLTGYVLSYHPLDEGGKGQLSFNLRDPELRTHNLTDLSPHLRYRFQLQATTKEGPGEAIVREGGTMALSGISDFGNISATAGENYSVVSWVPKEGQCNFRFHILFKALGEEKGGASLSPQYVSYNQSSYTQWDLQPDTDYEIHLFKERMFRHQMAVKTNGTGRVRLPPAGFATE
His-tagged, monomeric mouse L1CAM protein, sequence (P11627 whole entry, looked up, tested part not stated): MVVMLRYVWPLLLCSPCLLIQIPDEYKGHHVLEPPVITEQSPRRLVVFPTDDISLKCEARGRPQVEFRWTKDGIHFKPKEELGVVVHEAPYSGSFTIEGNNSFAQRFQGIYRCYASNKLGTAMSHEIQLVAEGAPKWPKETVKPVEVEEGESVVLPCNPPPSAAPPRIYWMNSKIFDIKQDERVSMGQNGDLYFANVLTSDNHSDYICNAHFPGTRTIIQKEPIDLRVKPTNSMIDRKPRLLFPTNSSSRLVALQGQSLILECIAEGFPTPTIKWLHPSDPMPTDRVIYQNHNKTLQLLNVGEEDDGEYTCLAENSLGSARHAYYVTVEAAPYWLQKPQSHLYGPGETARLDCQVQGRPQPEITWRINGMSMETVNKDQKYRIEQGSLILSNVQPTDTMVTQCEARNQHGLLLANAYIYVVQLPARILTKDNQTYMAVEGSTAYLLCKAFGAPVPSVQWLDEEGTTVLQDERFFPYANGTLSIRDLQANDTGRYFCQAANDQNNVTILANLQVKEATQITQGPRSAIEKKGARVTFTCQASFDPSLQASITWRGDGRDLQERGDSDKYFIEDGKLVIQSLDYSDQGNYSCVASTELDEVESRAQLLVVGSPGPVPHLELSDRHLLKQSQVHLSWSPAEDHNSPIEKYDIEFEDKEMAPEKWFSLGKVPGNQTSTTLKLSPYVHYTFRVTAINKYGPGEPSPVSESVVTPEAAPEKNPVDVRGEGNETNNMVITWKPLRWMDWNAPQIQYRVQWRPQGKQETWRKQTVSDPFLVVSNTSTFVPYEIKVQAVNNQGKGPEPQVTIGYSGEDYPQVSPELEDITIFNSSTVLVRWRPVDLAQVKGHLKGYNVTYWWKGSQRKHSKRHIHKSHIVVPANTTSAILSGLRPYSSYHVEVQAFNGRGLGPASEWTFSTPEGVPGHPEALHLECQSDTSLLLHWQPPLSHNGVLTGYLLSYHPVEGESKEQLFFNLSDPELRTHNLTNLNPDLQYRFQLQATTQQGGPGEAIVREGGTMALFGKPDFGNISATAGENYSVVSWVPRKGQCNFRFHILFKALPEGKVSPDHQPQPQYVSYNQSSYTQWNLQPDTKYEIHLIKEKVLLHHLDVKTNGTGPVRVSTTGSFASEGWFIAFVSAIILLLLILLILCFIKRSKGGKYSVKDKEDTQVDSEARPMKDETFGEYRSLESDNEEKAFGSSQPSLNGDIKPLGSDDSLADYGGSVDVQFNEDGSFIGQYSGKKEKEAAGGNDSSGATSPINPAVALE
Human L1CAM fibronectin-like type III (FNIII) repeats, residues 606-1116, C-terminal 6x His tag, sequence (P32004 606-1116): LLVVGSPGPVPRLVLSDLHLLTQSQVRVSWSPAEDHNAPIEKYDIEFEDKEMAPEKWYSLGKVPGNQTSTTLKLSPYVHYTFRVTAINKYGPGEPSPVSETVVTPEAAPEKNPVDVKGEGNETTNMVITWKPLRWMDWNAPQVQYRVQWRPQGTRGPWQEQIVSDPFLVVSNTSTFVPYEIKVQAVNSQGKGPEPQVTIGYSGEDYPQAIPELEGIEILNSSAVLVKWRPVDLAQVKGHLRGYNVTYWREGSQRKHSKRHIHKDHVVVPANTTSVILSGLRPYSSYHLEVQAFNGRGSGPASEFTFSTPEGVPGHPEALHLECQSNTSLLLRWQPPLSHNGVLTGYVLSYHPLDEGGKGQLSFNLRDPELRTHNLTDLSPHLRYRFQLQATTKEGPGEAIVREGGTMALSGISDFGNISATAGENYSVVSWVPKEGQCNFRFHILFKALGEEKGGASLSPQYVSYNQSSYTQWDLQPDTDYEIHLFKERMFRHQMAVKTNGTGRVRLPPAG

B1: 143G03 monoclonal antibody to human L1CAM (antibody, V domains shown)
VH: QVQLVQSGAEVKKPGSSVKVSCKASGYTFTNYYIHWVRQAPGQGLEWMGKIGPGSGSPYYQGMFKDRVTITADESTSTAYMELSSLRSEDTAVYYCARWLLPFDYWGQGTLVTVSS
VL: EIVLTQSPGTLSLSPGERATLSCRASSSVNYMHWYQQKPGQAPRLLIYATSILASGIPDRFSGSGSGTDYTLTISRLEPEDFAVYYCQQFSSDPLTFGGGTKVEIK
binds: [1] | [2] | [3]

B2: 14A10 monoclonal antibody to human L1CAM (antibody, V domains shown)
VH: EVQMVESGGGLVQPGGSLRLSCAAPGFIFSSYNMNWVRQAPGKGLEWVSYISSSSSTTYYADSVKGRFTISRDNAKNSLYLQMNSLRDEDTAVYYCASLYSGYDYYYYYGMDVWGQGTTVTVSS
VL: DIVMTQTPLSSPVSLGQPASISCRSSQSLVHSDGNTYLSWLQQRPGQPPRVLIYKISKRFSGVPDRFSGSGAGTDFTLKISRVEAEDVGVYYCMQATQFPFTFGPGTKVDIK
binds: [4] | [2] | [5] | [3]

B3: 13F04 monoclonal antibody to human L1CAM (antibody, V domains shown)
VH: QVQLQQPGAELVKPGASVKLSCKASGYIFISYWMHWVKQRPGQGLEWIGEINPRNGRTNYNEKFKSKATLTVDKSSSTAYMQLTSLTSEDSAVYYCARGGDYGGSFDYWGQGTTLTVSS
VL: DIVLTQSPASLAVSLGQRATISCRASESVDSYGNSFMHWYQQKPGQPPKLLIYRASNLESGIPARFSGSGSRTDFTLTVNPVEADDVATYYCQQSNEDPWTFGGGTKLEIK
binds: [4] | [3]
